# Experimental data taken from PMC9106845 (2022).
# T1: A02_YLQ peptide on HLA-A*02:01 (human)
# T1 peptide: YLQPRTFLL
# Biological target: T1, A02_YLQ peptide on HLA-A*02:01
# Experiment: multimer staining
binder,measurement,value
839 (TCR) alpha TRAV12-1 TRAJ47 CDR3: CVVNRADKLVF beta TRBV7-9 TRBJ2-2 CDR3: CASSDANTGELFF,binding result,recognises
